Values joined by “and” are separate entries in the source; they are usually repeats but may differ in a detail not shown here. Identical values can stand only once.

For assay [1], the target named is T1, bacterially produced human IL-6 (human, UniProt P05231 30-212).
T1 construct: also called bactIL-6; prokaryotic IL-6
The assay can be described thus: SPR; purified Fab, 68 nM.

Assay [2] addresses T2, eukaryotically produced human IL-6 (human, UniProt P05231 30-212).
T2 construct: also called eukIL-6; Euk IL-6
Briefly: SPR; purified Fab, 68 nM. On the technique in general: In SPR one partner is held on a chip, and binding of the other changes the refractive index at the surface.

In assay [3] the target is T3, cynomolgus monkey IL-6 (cynomolgus monkey, UniProt P79341 28-212, limits assumed).
T3 construct: also called HIS-cyIL-6
Briefly: SPR; purified Fab, 68 nM.

The target of assay [4] is T1, bacterially produced human IL-6. The assay can be described thus: SPR; purified Fab.
Assay [5] deals with T2, eukaryotically produced human IL-6. The assay can be described thus: SPR; purified Fab.
In assay [6] the target is T3, cynomolgus monkey IL-6. Briefly: SPR; purified Fab.
Assay [7] addresses T1, bacterially produced human IL-6. Briefly: SPR; purified Fab; IL-6 coated on CM5 chip.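 Also: dissociation rate taken from the wash phase, association rate fitted over the injection phase with analyte concentration and dissociation rate as inputs.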
Experimental: (§1) From the washing phase the off-rate (kd) was determined, while from the injection phase the on-rate (ka) was calculated using the concentration and off-rate as parameters.
In assay [8] the target is T2, eukaryotically produced human IL-6. The assay can be described thus: SPR; purified Fab; IL-6 coated on CM5 chip.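 Also: dissociation rate taken from the wash phase, association rate fitted over the injection phase with analyte concentration and dissociation rate as inputs.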
Experimental: as §1
Assay [9] deals with IL-6 surfaces of Table 8 (Bact, euk, cyno), average. Briefly: SPR (Biacore), off-rate screen.
Assay [10] concerns the target eukaryotically produced human IL-6 (human) (UniProt P05231). Briefly: SPR (Biacore), purified Fab.
The target of assay [11] is bacterially produced human IL-6 (human) (UniProt P05231). Briefly: SPR (Biacore), purified Fab.
In assay [12] the target is T4, human IL-6 (human, UniProt P05231 30-212). The assay can be described thus: SPR; purified Fab; average of the IL-6 channels.
In assay [13] the target is bacterially produced human IL-6 (human) (UniProt P05231). The assay can be described thus: SPR; purified Fab; ratio bact to euk IL-6.
Assay [14] deals with eukaryotically produced human IL-6 (human) (UniProt P05231). Briefly: SPR; purified Fab.
The target of assay [15] is bacterially produced human IL-6 (human) (UniProt P05231). Briefly: SPR; purified Fab.
The target in assay [16] is T5, bacterially produced cynomolgus monkey IL-6 (cynomolgus monkey, UniProt P79341 28-212, limits assumed).
T5 construct: also called bact-cy IL-6; HIS-cyIL-6
The assay can be described thus: off-rate of Fab 111A7 variant on bact-cy IL-6 (binding kinetics, SPR presumed; n = 2).

Assay [17] has as its target IL-6 (bact-hIL-6, euk-hIL-6 and bact-cy IL-6; 'average binding' of Table 21). Briefly: average binding level in the off-rate screen (unit not given; n = 2).
The target of assay [18] is T5, bacterially produced cynomolgus monkey …. Briefly: off-rate of Fab 111A7 variant on bact-cy IL-6 (binding kinetics, SPR presumed; n = 5).
Assay [19] deals with IL-6 (bact-hIL-6, euk-hIL-6 and bact-cy IL-6; 'average binding' of Table 21). Briefly: average binding level in the off-rate screen (unit not given; n = 5).
For assay [20], the target named is T4, human IL-6. Briefly: comparison of affinities after VL shuffling.
For assay [21], the target named is T6, human IL-6 (as added in the B9 and 7TD1 bioassays) (human, UniProt P05231 30-212). Briefly: cell-based or functional assay.
Assay [22] deals with T6, human IL-6 (as added in the B9 and 7TD1 …). The assay can be described thus: cell-based or functional assay. This is another data set of the same source.
Assay [23] shares this target. The assay can be described thus: cell-based or functional assay. The source holds these as a separate data set.
For assay [24], the target named is T1, bacterially produced human IL-6. Briefly: SPR; periplasmic fraction.
Experimental: as §1
In assay [25] the target is T2, eukaryotically produced human IL-6. The assay can be described thus: SPR; periplasmic fraction.
Experimental: as §1
The target in assay [26] is T1, bacterially produced human IL-6. The assay can be described thus: SPR; purified Fab; ratio bact to euk IL-6.
Assay [27] has as its target T4, human IL-6. The assay can be described thus: SPR; periplasmic fraction; average of the IL-6 channels. More on the design: unit not given here.
In assay [28] the target is T1, bacterially produced human IL-6. The assay can be described thus: SPR; purified Fab. The source holds these as a separate data set.
For assay [29], the target named is T2, eukaryotically produced human IL-6. Briefly: SPR; purified Fab. This is another data set of the same source.
For assay [30], the target named is T1, bacterially produced human IL-6. Briefly: SPR; purified Fab over biotinylated IL-6 on streptavidin chip.
Experimental: as §1
The target is the same in assay [31]. The assay can be described thus: SPR; periplasmic fraction; ratio bact to euk IL-6.
Experimental: as §1

B1: Fab 17F10 (Fab, V domains shown)
VH: EVQLQESGPGLVKPSQTLSLTCTVSGGSIATSYYAWSWIRQPPGKGLEWMGVIDYDGDTYYKPSLKSRTSISRDTSKNQFSLQLSSVTPEDTAVYYCARAGLGDSYYLGTYYAMDYWGKGTLVTVSS
VL: QAGLTQPPSVSGSPGKTVTISCAGTTSDVGTGNFVSWYQQLPGMAPKLLIYDVNKRASGIADRFSGSKSGNTASLTISGLQSEDEADYYCASYRSLNNVVFGGGTHLTVLG
notes: Fab; also called 17F10 pur Fab 68 nM
A word on the Kd: it is the concentration at which binding is half-saturated. The term koff denotes the rate constant with which the complex falls apart. Take B1: the Kd was found to be 19000 pM in assay [1]; 14000 pM in assay [2]; 14000 pM with cynomolgus monkey IL-6 [3]; 43000 pM in [4]; 6000 pM in assay [5]; 620 pM with cynomolgus monkey IL-6 [6]. Besides, the results for the Kd in assay [7] and in [8] were 43000 pM and 6000 pM, respectively. Moreover, the koff in assay [1] amounted to 0.00088 s⁻¹; in [2], 0.00077 s⁻¹; with cynomolgus monkey IL-6 [3], 0.00078 s⁻¹; in [4] it was 0.0012 s⁻¹; in [5], 0.00072 s⁻¹; in the assay with cynomolgus monkey IL-6 [6], 0.0007 s⁻¹. Further, the off-rate (koff) in assay [7] was found to be 0.0012 s⁻¹; in assay [8] it was 0.00072 s⁻¹.

B2: BE8-Fab (Fab, from another filing, V domains shown)
VH: QVTLKESGPGILKPSQTLSLTCSFSGFSLSTSGMGVGWIRQPSGKGLEWLAHIWWDDDKYYNPSLKSQLTISKDTSRNQVFLKITSVDTADTATYYCARSYDDYLYYALDYWGQGTSVTVSS
VL: DIVMTQSPATLSVTPGDRVSLSCRASQSISDYLHWYQQKSHESPRLLIKSVSQSISGIPSRFSGSGSGSDFTLSINSVEPEDVGVYYCQNGHSFPLTFGAGTKLELK
As usually defined, the kon is the second-order rate constant of association. Consider B2, for which the Average binding (RU) in assay [9] was 338 RU and 340 RU and 347 RU. Besides, the Kd in assay [10] is 220 pM; in assay [11] it was 280 pM. The koff in [10] stood at 7.7e-05 s⁻¹; in [11] it was 7.7e-05 s⁻¹; in assay [14], 8.59e-05 s⁻¹; in [15], 9.41e-05 s⁻¹. Moreover, the results for the kon in assay [10] and in [11] were 360000 M⁻¹ s⁻¹ and 280000 M⁻¹ s⁻¹, respectively. This molecule came in with an average binding with human IL-6 [12] of 207. Also, in [13], the ratio bact/euk is 1.05.

B3: Fab 111A7 with the CDR3 methionine changed to T (Fab, V domains shown)
VH: EVQLLESGGGLVQPGGSLRLSCAASGFTFSSYAMSWVRQAPGKGPEWVSRISAGGGSTYYGDSVKGRFTISRDNSKNTLYLQMNSLRAEDTAVYYCANRAGWGTGDYWGQGTLVTVSS
VL: QTVVTQEPSFSVSPGGTVTLTCGLSSGSVTASNYPGWYQQTPGQAPRALIYSTNDRHSGVPDRFSGSISGNKAALTITGAQAEDEADYYCALDIGDITEFGGGTQLTVL
B3 showed a koff in assay [16] of 0.000144 s⁻¹. In addition, the average binding in assay [17] turned out to be 130.

B4: Fab 111A7 with the CDR3 methionine changed to P (Fab, V domains shown)
VH: EVQLLESGGGLVQPGGSLRLSCAASGFTFSSYAMSWVRQAPGKGPEWVSRISAGGGSTYYGDSVKGRFTISRDNSKNTLYLQMNSLRAEDTAVYYCANRAGWGPGDYWGQGTLVTVSS
VL: QTVVTQEPSFSVSPGGTVTLTCGLSSGSVTASNYPGWYQQTPGQAPRALIYSTNDRHSGVPDRFSGSISGNKAALTITGAQAEDEADYYCALDIGDITEFGGGTQLTVL
In the case of B4, in assay [18], the koff is 0.000899 s⁻¹. In assay [19], this molecule yielded an average binding of 66.

B5: Fab 111A7 with the CDR3 methionine changed to V (Fab, V domains shown)
VH: EVQLLESGGGLVQPGGSLRLSCAASGFTFSSYAMSWVRQAPGKGPEWVSRISAGGGSTYYGDSVKGRFTISRDNSKNTLYLQMNSLRAEDTAVYYCANRAGWGVGDYWGQGTLVTVSS
VL: QTVVTQEPSFSVSPGGTVTLTCGLSSGSVTASNYPGWYQQTPGQAPRALIYSTNDRHSGVPDRFSGSISGNKAALTITGAQAEDEADYYCALDIGDITEFGGGTQLTVL
Take B5: in assay [16], the koff is 0.000242 s⁻¹. Also, in assay [17], the average binding was found to be 163.

B6: Fab 68F2 (Fab, V domains shown)
VH: EVQLQESGPGLVKPSQTLSLTCTVSGGSITTRYYAWSWIRQPPGKGLEWMGVIDYDGDTYYSPSLKSRTSISWDTSKNQFSLQLSSVTPEDTAVYYCARDPDVVTGFHYDYWGQGTQVTVSS
VL: QSALTQPPLVSGTPGQTVTISCAGANNDIGTYAYVSWYQQLPGTAPKLLIYKVTTRASGIPSRFSGSKSGNTASLTISGLQSEDEADYYCASYRNFNNAVFGRGTHLTVLG
notes: VL-shuffled Fab of 20A4; for the crystal the Fab was made from 68F2 mAb with papain; also called 68F2 Fab
Consider B6, for which the “fold affinity against parental 20A4” value in the assay with human IL-6 [20] is 10 fold. The koff in [4] came to 8e-05 s⁻¹; in assay [5] it was 3.3e-05 s⁻¹.

B7: 61H7 (antibody, V domains shown)
VH: EVQLVESGGGLVQPGGSLRLSCAASGFTFSSYRMYWVRQPPGKGLEWVSAISAGGGSTYYGDSVKGRFTISRDNAKNTVYLQMNSLKPEDTAVYYCANRAGWGMGDYWGQGTQVTVSS
VL: QTVVTQEPSLSVSPGGTVTLTCGLSSGSVTASNYPGWFQQTPGQAPRALIYSTNDRHSGVPSRFSGSISGNKAALTITGAQPEDEADYYCALDIGDITEFGGGTHLTVLG
On to B7, for which, in assay [21], the “IC 50, B9 cell proliferation (batch 12.8)” value came out at 1.83 pM and the “IC 50, B9 cell proliferation (batch A8.11)” value worked out at 1.57 pM. Further, in assay [22], the “IC50, 7TD1 cells (batch A8.11)” value was 3.48 pM and the “Potency relative to 68F2, 7TD1 cells (batch A8.11)” value turned out to be 0.19. In addition, the “IC50 (read off the curve), B9 cell proliferation” value in assay [23] was ~1 pM.

B8: Fab 24D10 (Fab, V domains shown)
VH: QLQVVESGGGLVQPGGSLRLSCAASGFTFSSYAMSWVRQAPGKGPEWVSRISSGGGSTSYADSVKGRFTISRDNAKNTLYLQMNSLKPEDTAVYYCANRAGWGMGDYWGQGTQVTVSS
VL: QTVVTQEPSLSVSPGGTVTLTCGLSSGSVTASNYPGWFQQTPGQAPRALIYSTNDRHSGVPSRFSGSISGNKAALTITGAQPEDEADYYCALDIGDITEFGGGTHLTVLG
notes: Fab; also called pur24d10; 28f12(24D10)
Take B8: the off-rate constant (koff) was found to be 0.000183 s⁻¹ in assay [24]; 0.000144 s⁻¹ in assay [25]; 0.000143 s⁻¹ in assay [28]; 0.000125 s⁻¹ in [29]; 1.69e-05 s⁻¹ in assay [30]; 0.00019 s⁻¹ in assay [7]. The koff in assay [8] worked out at 0.00017 s⁻¹. Further, the ratio bact/euk in assay [26] came to 1.14; in assay [31], 1.09. In the assay with human IL-6 [27], the average binding came out at 167. The Ka in assay [30] worked out at 3.7e+09 M⁻¹. Moreover, the Kd was 270 pM in assay [30], 1200 pM in assay [7] and 850 pM in [8]. This molecule also gave an on-rate constant (kon) in assay [30] of 62700 M⁻¹ s⁻¹.

B9: Fab 61H7 (Fab, V domains shown)
VH: EVQLVESGGGLVQPGGSLRLSCAASGFTFSSYRMYWVRQPPGKGLEWVSAISAGGGSTYYGDSVKGRFTISRDNAKNTVYLQMNSLKPEDTAVYYCANRAGWGMGDYWGQGTQVTVSS
VL: QTVVTQEPSLSVSPGGTVTLTCGLSSGSVTASNYPGWFQQTPGQAPRALIYSTNDRHSGVPSRFSGSISGNKAALTITGAQPEDEADYYCALDIGDITEFGGGTHLTVLG
notes: Fab; also called pur61H7; 61H7 Fab
With B9, the ratio bact/euk in [26] was determined as 1.13. Moreover, the values for the koff in assay [28] and in assay [29] were 4.22e-05 s⁻¹ and 3.68e-05 s⁻¹, respectively.

These data come from patent US20220073604A1 (ARGENX BVBA, published 2022).
